Experimental findings from patent US20140193449A1 are described below.

The assay concerns the target CD8+ splenocytes from LV-huCEA-vaccinated huCEA transgenic mice (T cell receptors of huCEA-specific CTLs). The assay can be described thus: flow cytometry, tetramer and anti-CD8 double staining of pooled splenocytes.

“PE-conjugated huCEA/H-2Db tetramer specific for EAQNTTYL (SEQ ID NO: 23) immunogenic peptide (iTag, Beckman Coulter) (from UniProt P01899 25-309) (peptide-MHC)” came in with a percent of CD8+ splenocytes stained by the tetramer of 2.1%.
